Data: article PMC10396963, “Fibril formation and ordering of disordered FUS LC driven by hydrophobic interactions” (Nature Chemistry, 2023)

Molecular target: the molecule itself
Experiment: atomic force microscopy; film formed from 1.5 uM FUS LC at the air/PBS interface (pH 7.4), 5 h, deposited on a Si wafer and dried; 20 ± 1 °C

B1: FUS low-complexity domain (FUS LC, 1–163 amino acids) (domain or fragment, human, UniProt P35637 1-163, looked up)
chain: MASNDYTQQATQSYGAYPTQPGQGYSQQSSQPYGQQSYSGYSQSTDTSGYGQSSYSSYGQSQNTGYGTQSTPQGYGSTGGYGSSQSSQSSYGQQSSYPGYGQQPAPSSTSGSYGSSSQSSSYGQPQSGSYSQQPSYGGQQQSYGQQQSYNPPQGYGQQNQYNS
notes: Human FUS (fused in sarcoma), N-terminal QGSY-rich low-complexity domain, amino-acid residues 1-163; For FRAP 5% of the protein carried Cy3 (NHS ester); the AFM and BAM samples were unlabelled; also called fused in sarcoma low-complexity domain; wild-type FUS LC; source: E. coli, purified (solubilised in 8 M urea, Ni-NTA, cleaved with tobacco etch virus protease, exchanged to CAPS pH 11)
- binding result: binds
